T1: RAGE-derived peptide 2 (human)
T1 construct: Synthetic peptide with a free carboxyl terminus
T1 peptide: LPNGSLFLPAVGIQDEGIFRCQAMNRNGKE

T2: RAGE-derived peptide 5 (human)
T2 construct: Synthetic peptide with a free carboxyl terminus
T2 peptide: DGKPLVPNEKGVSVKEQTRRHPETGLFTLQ

T3: RAGE-derived peptide 8 (human)
T3 construct: Synthetic peptide with a free carboxyl terminus
T3 peptide: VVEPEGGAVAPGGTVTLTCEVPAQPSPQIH

T4: RAGE-derived peptide 1 (human)
T4 construct: Synthetic peptide with a free carboxyl terminus
T4 peptide: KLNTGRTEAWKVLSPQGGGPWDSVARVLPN

T5: RAGE-derived peptide 6 (human)
T5 construct: Synthetic peptide with a free carboxyl terminus
T5 peptide: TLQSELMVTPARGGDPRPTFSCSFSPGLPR

T6: RAGE-derived peptide 9 (human)
T6 construct: Synthetic peptide with a free carboxyl terminus
T6 peptide: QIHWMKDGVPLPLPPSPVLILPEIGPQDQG

T7: RAGE-derived peptide NtermR31 (human)
T7 construct: Synthetic peptide with a free carboxyl terminus
T7 peptide: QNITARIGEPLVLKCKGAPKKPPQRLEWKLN

T8: RAGE-derived peptide 10 (human)
T8 construct: Synthetic peptide with a free carboxyl terminus
T8 peptide: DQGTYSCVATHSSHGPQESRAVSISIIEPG

T9: RAGE-derived peptide 4 (human)
T9 construct: Synthetic peptide with a free carboxyl terminus
T9 peptide: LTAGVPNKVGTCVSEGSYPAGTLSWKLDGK

T10: RAGE-derived peptide 3 (human)
T10 construct: Synthetic peptide with a free carboxyl terminus
T10 peptide: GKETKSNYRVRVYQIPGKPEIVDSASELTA

T11: RAGE-derived peptide 7 (human)
T11 construct: Synthetic peptide with a free carboxyl terminus
T11 peptide: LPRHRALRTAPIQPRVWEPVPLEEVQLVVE


Tests used:
[1] = biological target: T1, RAGE-derived peptide 2; experiment: dot blot, non-denatured peptide on nitrocellulose
Source text: (§1) Dot blots were used to evaluate the binding of antibodies to peptides or fragments of RAGE in a non-denatured form. […] Peptides were ordered and synthesized by Biotrend according to standard methods (solid phases peptide synthesis on AMS 222 synthesizer using Fmoc/tBu-chemistry) containing a free carboxyl terminus. Peptides were HPLC-purified and analysis of every peptide for purity was done using RP-HPLC. […] The identities of peptides were verified by mass spectrometry.
(§2) Dots consisting of different amount of protein/peptide (30 ng, 10 ng, 3 ng, 1 ng, 0.3 ng, 0.1 ng, 0.03 ng, and 0.01 ng) in a volume of 1 μl in 1×PBS were spotted onto a Hybond-ECL Nitrocellulose Membrane (Amersham, RPN68D) in duplicates. Membranes were dried and unspecific binding was blocked by shaking the membranes for 1 hour at room temperature with Western Blocking reagent (Roche, no. 1921673). Blocking reagent was discarded and the membranes were incubated with antibodies in a concentration of 7.14 nM (shaking, 1 hour at room temperature). […] Blots were washed 4 times (each time 5 minute incubation with shaking at room temperature) with 1×PBS. Blots were then incubated with goat anti mouse IgG AP secondary antibody (Sigma no. A-7434) diluted 1:2000 in Western Blocking Reagent (Roche, no. 192173). Incubation for 1 hour was as before (shaking, room temperature). The filters were washed 4 times (5 minutes each) in 1×PBS. Development of signals was according to manufacturers instructions with NBT/BCIP substrate solution (Roche, no. 1697471). Color development was stopped after 10 minutes with bi-distilled water.

[2] = biological target: T2, RAGE-derived peptide 5; experiment: dot blot, non-denatured peptide on nitrocellulose
Source text: as §1, §2

[3] = biological target: T3, RAGE-derived peptide 8; experiment: dot blot, non-denatured peptide on nitrocellulose
Source text: as §1, §2

[4] = biological target: T4, RAGE-derived peptide 1; experiment: dot blot, non-denatured peptide on nitrocellulose
Source text: as §1, §2

[5] = biological target: T5, RAGE-derived peptide 6; experiment: dot blot, non-denatured peptide on nitrocellulose
Source text: as §1, §2

[6] = biological target: T6, RAGE-derived peptide 9; experiment: dot blot, non-denatured peptide on nitrocellulose
Source text: as §1, §2

[7] = biological target: T7, RAGE-derived peptide NtermR31; experiment: dot blot, non-denatured peptide on nitrocellulose
Source text: as §1, §2

[8] = biological target: T8, RAGE-derived peptide 10; experiment: dot blot, non-denatured peptide on nitrocellulose
Source text: as §1, §2

[9] = biological target: T9, RAGE-derived peptide 4; experiment: dot blot, non-denatured peptide on nitrocellulose
Source text: as §1, §2

[10] = biological target: T10, RAGE-derived peptide 3; experiment: dot blot, non-denatured peptide on nitrocellulose
Source text: as §1, §2

[11] = biological target: T11, RAGE-derived peptide 7; experiment: dot blot, non-denatured peptide on nitrocellulose
Source text: as §1, §2

[12] = biological target: T12, hRAGE (1-331) / human sRAGE 1-331, V#400 (human, UniProt Q15109 23-331); experiment: Biacore 2000 SPR, mAb captured via anti-mouse Fc, RAGE injected 20-0.31 nM, HBS-EP+ buffer, 1:1 fit
T12 construct: also called sRAGE [RAGE (1-331)]; RAGE (antigen of the Biacore runs)
T12 sequence (Q15109 23-331): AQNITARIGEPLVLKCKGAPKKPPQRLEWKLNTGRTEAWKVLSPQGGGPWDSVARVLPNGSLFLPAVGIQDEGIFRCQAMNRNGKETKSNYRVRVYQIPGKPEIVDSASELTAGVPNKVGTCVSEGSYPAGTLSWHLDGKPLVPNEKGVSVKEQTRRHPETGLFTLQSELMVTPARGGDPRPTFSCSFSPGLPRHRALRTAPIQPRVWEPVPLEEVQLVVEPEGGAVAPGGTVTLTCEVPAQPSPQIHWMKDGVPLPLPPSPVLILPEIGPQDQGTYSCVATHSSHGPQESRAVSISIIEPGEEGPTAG
Description: The assay format for mAb affinity analysis was Fc-based capture via immobilized anti-Fc antibodies. A standard amine coupling protocol was employed to immobilize Fc-specific IgG via primary amines to the carboxy-methyl (CM) dextran surface of CM5 sensorchips (Biacore). […] Briefly, the CM-dextran surfaces were activated by freshly prepared 1:1 50 mM N-hydroxysuccinimide (NHS):200 mM 3-(N,N-dimethylamino) propyl-N-ethylcarbodiimide (EDC). Then the anti-Fc IgG capture reagent (20 ug/ml in 10 mM sodium acetate, pH4.5) was applied to the surface followed by deactivation of the surface and blocking of the residual reactive sites with 1M ethanolamine (pH 8.5).
Each experimental cycle consisted of the following steps: 1) anti-RAGE mAbs were captured in flowcells 2, 3 or 4 to a level of 50-200 RU (depending on the antigen). All measurements were referenced against flowcell 1 which had no captured anti-RAGE mAb. […] 3) the anti-Fc capture surface was regenerated with low pH glycine.
Briefly, the data were double referenced by first, subtracting the signal from the reference cell and second, by subtracting the signal from buffer-only injections.

binding result [1] | binding result [2] | binding result [3] | binding result [4] | binding result [5] | binding result [6] | binding result [7] | binding result [8] | binding result [9] | binding result [10] | binding result [11] | Kd [12] | Binder
no binding | no binding | no binding | no binding | no binding | no binding | no binding | no binding | no binding | no binding | no binding | 2.2 nM | anti-human RAGE monoclonal antibody 4E5 (murine, hybridoma-derived) (antibody, V domains shown, also called mAb4E5; ML37-4E5) VH: QVQLQQSGAELVRPGTSVKVSCKASGYAFNNYLIEWIKQRPGQGLEWIGVINPGSGGTNHNEKFKVKATLTADKSSSTAYIQLSSLTSDDSAVYFCARSAGTARARFAYWGQGTLVTVSA VL: DIQMTQSPSSLSASLGERVSLTCRASQDIGSSLNWLQQEPDGTIKRLIYATSSLDSGVPKRFSGSRSGSDYSLTISSLESEDFVDYYCLQYASFPFTFGSGTKLEIKR
no binding | no binding | no binding | no binding | no binding | no binding | no binding | no binding | no binding | no binding | no binding | 0.11 nM | anti-human RAGE monoclonal antibody 7F9 (murine, hybridoma-derived) (antibody, V domains shown, also called mAb7F9; MAb 7F9) VH: EEKLEESGGGLVQLGGSMKISCVASGFTLSNYWMDWVRQSPEKGLEWIAEIRLKSNYYSTHYAESVKGRFSISRDDSKGSVSLQMDNLTAEDTGIYFCARNAYWYFDVWGTGTTVTVSS VL: DIVMTQSHKFMSTSVGDRVSATCKASQDVGTSVAWYQQKLGQSPKLLIYWTSTRHTGVPDRFTGSGSGTDFTLTISNVQSEDLADYFCQQYNNYPLTFGDGTKLELKR
no binding | no binding | no binding | no binding | no binding | no binding | no binding | no binding | no binding | no binding | no binding | 0.29 nM | anti-human RAGE monoclonal antibody 11E6 (murine, hybridoma-derived) (antibody, V domains shown, also called mAb11E6; ML37-11E6) VH: QIQLVQSGPELKKPGETVKISCKASGYTFTNFGMNWVKQAPGKGLKWMGYINTNTGESIYSEEFKGRFAFSLETSASTAYLQINNLKNEDTATYFCARSRMVTAYGMDYWGQGTSVTVSS VL: DIVMTQSQKFMSTSVGDRVSITCKASQNVGTAVAWYQQRPGQSPKLLIFSASNRYTGVPDRFTGSGSGTDFTLTLSNMQPEDLADYFCQQYSSYPLTFGVGTKLELKR

Source: US20170002075A1 (AbbVie / Abbott, published 2017)
